The values that follow come from article PMC2196380.

The target of this test is HLA-DM (DMα/DMβ heterodimer) (human (endogenous in B-LCL)) (UniProt P28067). In words: co-IP.
Chain of UniProt P28067 (P28067 27-261, chain 1 of 2): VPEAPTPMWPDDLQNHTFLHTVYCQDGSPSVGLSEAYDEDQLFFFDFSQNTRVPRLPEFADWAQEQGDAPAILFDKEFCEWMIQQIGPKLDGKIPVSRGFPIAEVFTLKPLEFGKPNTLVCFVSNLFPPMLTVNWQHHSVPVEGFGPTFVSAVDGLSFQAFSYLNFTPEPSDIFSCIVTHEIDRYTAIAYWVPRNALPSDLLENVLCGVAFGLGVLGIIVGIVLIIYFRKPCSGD
Chain of UniProt P28067 (P28068 19-263, chain 2 of 2, further chain): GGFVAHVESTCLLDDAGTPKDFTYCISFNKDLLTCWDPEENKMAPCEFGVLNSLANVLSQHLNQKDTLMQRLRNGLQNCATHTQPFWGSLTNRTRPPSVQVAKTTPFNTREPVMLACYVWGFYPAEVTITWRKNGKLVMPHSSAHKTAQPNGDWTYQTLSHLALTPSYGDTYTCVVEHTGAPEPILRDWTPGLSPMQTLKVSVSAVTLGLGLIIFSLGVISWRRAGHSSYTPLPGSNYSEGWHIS

Take “wild-type HLA-DR3 αβCLIP complexes from T2.DR3 cells (from UniProt P01903 26-254) (peptide-MHC)”: the percent coprecipitated with DM turned out to be 14%.
